In US20230159589A1 (published 2023):
Square brackets hold non-standard residues; d marks the D form. Ends that are not written are not given here. F2Pmp = N[C@@H](Cc1ccc(C(F)(F)P(=O)(O)O)cc1)C(=O)O

T1: STEP32 WT (catalytic domain of protein tyrosine phosphatase STEP/PTPN5, aa 282-563, N-terminal 6xHis tag) (UniProt P54829 282-563)
T1 construct: Expressed from pLIC-SGC1-PTPN5 WT (Addgene 39166); also called catalytic active STEP32
T1 sequence: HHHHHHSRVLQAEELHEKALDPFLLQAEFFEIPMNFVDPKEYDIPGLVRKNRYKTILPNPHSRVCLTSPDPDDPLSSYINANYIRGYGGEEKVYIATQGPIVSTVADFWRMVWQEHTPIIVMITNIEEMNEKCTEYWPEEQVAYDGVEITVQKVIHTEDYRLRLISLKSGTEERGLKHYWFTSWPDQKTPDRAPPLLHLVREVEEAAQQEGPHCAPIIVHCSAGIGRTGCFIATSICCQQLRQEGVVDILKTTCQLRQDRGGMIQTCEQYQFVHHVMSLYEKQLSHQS


Assays:
[1] = molecular target: STEP32 C/S (catalytically inactive substrate-trapping mutant of the catalytic domain of protein tyrosine phosphatase STEP/PTPN5, aa 282-563, C496S, N-terminal 6xHis tag) (Homo sapiens (Human)) (UniProt P54829); assay: fluorescence polarization competition; displaces TAM-3Y-F2Pmp from STEP32 C/S
[2] = molecular target: STEP32 C/S (catalytically inactive substrate-trapping mutant of the catalytic domain of protein tyrosine phosphatase STEP/PTPN5, aa 282-563, C496S, N-terminal 6xHis tag) (Homo sapiens (Human)) (UniProt P54829); assay: fluorescence polarization competition; column headed Kd, the text speaks of IC50 values in Table 3
[3] = molecular target: STEP32 C/S (catalytically inactive substrate-trapping mutant of the catalytic domain of protein tyrosine phosphatase STEP/PTPN5, aa 282-563, C496S, N-terminal 6xHis tag) (Homo sapiens (Human)) (UniProt P54829); assay: fluorescence polarization competition; reference EGYNVpY hexapeptide
[4] = molecular target: STEP32 C/S (catalytically inactive substrate-trapping mutant of the catalytic domain of protein tyrosine phosphatase STEP/PTPN5, aa 282-563, C496S, N-terminal 6xHis tag) (Homo sapiens (Human)) (UniProt P54829); assay: SPR (Biacore 3000), peptide immobilized, STEP32 C/S analyte, 1:1 Langmuir fit
[5] = molecular target: STEP32 C/S (catalytically inactive substrate-trapping mutant of the catalytic domain of protein tyrosine phosphatase STEP/PTPN5, aa 282-563, C496S, N-terminal 6xHis tag) (Homo sapiens (Human)) (UniProt P54829); assay: SPR, peptide immobilized, STEP32 C/S analyte
[6] = molecular target: STEP32 C/S (catalytically inactive substrate-trapping mutant of the catalytic domain of protein tyrosine phosphatase STEP/PTPN5, aa 282-563, C496S, N-terminal 6xHis tag) (Homo sapiens (Human)) (UniProt P54829); assay: fluorescence polarization competition; displaces TAMRA-3Y-F2Pmp from STEP32 C/S
[7] = molecular target: STEP32 C/S (catalytically inactive substrate-trapping mutant of the catalytic domain of protein tyrosine phosphatase STEP/PTPN5, aa 282-563, C496S, N-terminal 6xHis tag) (Homo sapiens (Human)) (UniProt P54829); assay: SPR (value taken from Table S3)
[8] = molecular target: STEP32 C/S (catalytically inactive substrate-trapping mutant of the catalytic domain of protein tyrosine phosphatase STEP/PTPN5, aa 282-563, C496S, N-terminal 6xHis tag) (Homo sapiens (Human)) (UniProt P54829); assay: SPR; reference p3Y
[9] = molecular target: STEP32 C/S (catalytically inactive substrate-trapping mutant of the catalytic domain of protein tyrosine phosphatase STEP/PTPN5, aa 282-563, C496S, N-terminal 6xHis tag) (Homo sapiens (Human)) (UniProt P54829); assay: ligand efficiency derived from the binding data
[10] = molecular target: T1, STEP32 WT (catalytic domain of protein …); assay: SPR (Biacore 3000), peptide immobilized, STEP32 WT analyte (per FIG. 7 legend), 1:1 Langmuir fit
Protocol: For kinetic interaction studies by SPR, each of the short phosphopeptides was covalently immobilized on a flow cell of a carboxymethylated dextran chip. […] The amino group of the spacer was used to perform the covalent binding of the ligands to the sensor.
(§1) For each kinetic experiment, at least five different protein concentrations ranging between 100 nM and 500 μM were used. […] The association and dissociation time was set to 5 min. After each interaction test, 2-4 cycles of regeneration were performed by injecting 1M NaCl in HBS-EP buffer (0.01 M HEPES pH 7.4, 0.15 M NaCl, 3 mM EDTA, 0.005% v/v Surfactant P20) for 2 min at a flow rate of 20 μl/min. HBS-EP buffer was used as a running buffer. All measurements were carried out at 25° C. The data obtained was processed with BIAevaluation 3.1 software using 1:1 Langmuir fitting model with drifting baseline (using “Kinetics Simultaneous Kd/Ka” module). Nonspecific signals were removed by subtraction of signals from the reference area.

[11] = molecular target: T1, STEP32 WT (catalytic domain of protein …); assay: SPR, peptide immobilized, STEP32 WT analyte (per FIG. 7 legend)
Protocol: as §1

Ki [1] [nM]	IC50 [2] [µM]	Ka [4] [M⁻¹]	Kd [4] [µM]	koff [4] [s⁻¹]	Ki [6] [µM]	Molecule	further results
760	3.36					p-fin5 (EGYNVpYGD) (peptide)	
360	1.86	1.13e+07	0.0884	0.00692		p-fin4 (EGYNVpYE) (peptide)	fold improvement of the inhibition constant over the original hexapeptide [3]: 2 fold; kon [4]: 78200 M⁻¹ s⁻¹; Kd [5]: 90 nM
1900	8.01					p-fin1 (GYNVpY) (peptide)	
					4.57	p3Ysh-7 (PEG2-FSpYG) (peptide)	
		38400	26	0.00252	4.99	p3Ysh-1 (PEG2-NVpYG) (peptide)	Kd [7]: 26 µM
690	2.6	1.88e+07	0.0531	0.00176	1.64	p3Ysh-3 (PEG2-EGYNVpY) (peptide)	fold lower Kd than p3Y [8]: 4 fold; fold smaller Kd than p3Y [8]: > 2 fold; LE (ligand efficiency) [9]: 0.64; kon [4]: 33100 M⁻¹ s⁻¹; Kd [7]: 0.06 µM
					5.34	p3Ysh-5 (PEG2-YVpYG) (peptide)	
2160	8.84					p-fin3 (NGYNVpY) (peptide)	
1850	7.15					p-fin2 (DGYNVpY) (peptide)	
		163000	6.13	0.11	6.96	p3Ysh-6 (PEG2-FGYNVpYG) (peptide)	fold higher Kd than p3Y [8]: 6.4 fold; kon [4]: 17900 M⁻¹ s⁻¹; Kd [7]: 6.13 µM
		253000	3.96	0.179	13.1	p3Ysh-2 (PEG2-YNVpYG) (peptide)	fold higher Kd than p3Y [8]: 17 fold; kon [4]: 45200 M⁻¹ s⁻¹; Kd [7]: 3.96 µM
					13.7	p3Ysh-4 (PEG2-NSpYG) (peptide)	
						ATYKEGYNV[F2Pmp]G (also called p3Y-F2Pmp) [3Y-F2Pmp (ATYKEGYNV{F2Pmp}G)]	Ka [10]: 3.74e+06 M⁻¹; Kd [10]: 268 nM; koff [10]: 0.00656 s⁻¹; kon [10]: 24500 M⁻¹ s⁻¹; Kd [11]: 270 nM
						EGYNV[F2Pmp] (also called 3Ysh-F2Pmp) [3Ysh-3-F2Pmp (EGYNV{F2Pmp})]	Ka [10]: 4.12e+06 M⁻¹; Kd [10]: 242 nM; koff [10]: 0.00483 s⁻¹; kon [10]: 19900 M⁻¹ s⁻¹; Kd [11]: 240 nM
